The target in this experiment is TGFβ1 (UniProt P01137). Briefly: cell-based or functional assay.
Chain of UniProt P01137 (P01137 279-390 limits assumed): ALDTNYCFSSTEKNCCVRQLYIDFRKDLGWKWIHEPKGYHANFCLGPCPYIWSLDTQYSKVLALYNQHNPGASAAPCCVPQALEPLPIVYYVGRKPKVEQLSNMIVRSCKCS

In turn, control IgG (antibody) came in with a [3H] thymidine incorporation (CPM) of CCL64 mink lung cells with 0.1 ng/ml TGFβ1, control IgG at 0.02 µg/ml of 43000 CPM; a [3H] thymidine incorporation (CPM) of CCL64 mink lung cells with 0.1 ng/ml TGFβ1, control IgG at 0.04 µg/ml of 54400 CPM; a [3H] thymidine incorporation (CPM) of CCL64 mink lung cells with 0.1 ng/ml TGFβ1, control IgG at 0.08 µg/ml of 61900 CPM; a [3H] thymidine incorporation (CPM) of CCL64 mink lung cells with 0.1 ng/ml TGFβ1, control IgG at 0.16 µg/ml of 52800 CPM. The [3H] thymidine incorporation (CPM) of CCL64 mink lung cells with 0.1 ng/ml TGFβ1, control IgG at 0.31 µg/ml was 52400 CPM; the [3H] thymidine incorporation (CPM) of CCL64 mink lung cells with 0.1 ng/ml TGFβ1, control IgG at 0.62 µg/ml was 56700 CPM; the [3H] thymidine incorporation (CPM) of CCL64 mink lung cells with 0.1 ng/ml TGFβ1, control IgG at 1.25 µg/ml came out at 51400 CPM; the [3H] thymidine incorporation (CPM) of CCL64 mink lung cells with 0.1 ng/ml TGFβ1, control IgG at 2.5 µg/ml worked out at 54400 CPM. In addition, the [3H] thymidine incorporation (CPM) of CCL64 mink lung cells with 0.1 ng/ml TGFβ1, control IgG at 5 µg/ml turned out to be 55100 CPM and the [3H] thymidine incorporation (CPM) of CCL64 mink lung cells with 0.1 ng/ml TGFβ1, control IgG at 10 µg/ml was determined as 53600 CPM.
On to “recombinant rabbit TGFβRII:Fc fusion protein”, for which the [3H] thymidine incorporation (CPM) of CCL64 mink lung cells with 0.1 ng/ml TGFβ1, TGFβRII:Fc at 0.02 µg/ml is 57700 CPM; the [3H] thymidine incorporation (CPM) of CCL64 mink lung cells with 0.1 ng/ml TGFβ1, TGFβRII:Fc at 0.04 µg/ml stood at 49900 CPM; the [3H] thymidine incorporation (CPM) of CCL64 mink lung cells with 0.1 ng/ml TGFβ1, TGFβRII:Fc at 0.08 µg/ml came to 63800 CPM; the [3H] thymidine incorporation (CPM) of CCL64 mink lung cells with 0.1 ng/ml TGFβ1, TGFβRII:Fc at 0.16 µg/ml stood at 75100 CPM. The [3H] thymidine incorporation (CPM) of CCL64 mink lung cells with 0.1 ng/ml TGFβ1, TGFβRII:Fc at 0.31 µg/ml came out at 119000 CPM; the [3H] thymidine incorporation (CPM) of CCL64 mink lung cells with 0.1 ng/ml TGFβ1, TGFβRII:Fc at 0.62 µg/ml stood at 150000 CPM; the [3H] thymidine incorporation (CPM) of CCL64 mink lung cells with 0.1 ng/ml TGFβ1, TGFβRII:Fc at 1.25 µg/ml came out at 168000 CPM; the [3H] thymidine incorporation (CPM) of CCL64 mink lung cells with 0.1 ng/ml TGFβ1, TGFβRII:Fc at 2.5 µg/ml came to 179000 CPM. The substance further yielded a [3H] thymidine incorporation (CPM) of CCL64 mink lung cells with 0.1 ng/ml TGFβ1, TGFβRII:Fc at 5 µg/ml of 179000 CPM; a [3H] thymidine incorporation (CPM) of CCL64 mink lung cells with 0.1 ng/ml TGFβ1, TGFβRII:Fc at 10 µg/ml of 182000 CPM; an amount required to inhibit the anti-proliferative effect of 0.1 ng/ml TGFβ1 by 50% of 0.5 µg/mL.
